Where a chain is given by its changes, count along the chain named.
B1: MS705/HV0LV9 antibody (anti-CD10 CDR-grafted antibody obtained from the HV0LV9MS705 strain, FERM BP-10099) (antibody, V domains shown)
VH: EVQLVESGGGVVQPGRSLRLSCAASGFTFSSFGMHWVRQAPGKGLEWVAYISGGSYTIYYADTVKGRFTISRDNSKNTLYLQMNSLRAEDTAVYYCARSYGNFWYFDVWGQGTTVTVSS
VL: DIVMTQSPDSLAVSLGERATIACSVSSSISSSNLHWYQQKPGQSPKPWIYGTSNLASGVPVRFSGSGSGTSYFLTISSLQAEDVATYYCQQWSSYPLTFGQGTKVEIKR
notes: Whole antibody expressed from pKANTEX3061HV0LV9 (human constant regions)
B2: MS705/HV0LV0 antibody (anti-CD10 CDR-grafted antibody obtained from the HV0LV0MS705 strain) (antibody, V domains shown)
VH: B1 VH
VL: B1 VL with A22N, S44P, P47L, W48L, V61D, S71D, Y72F, F73T, T86V
notes: Whole antibody expressed from pKANTEX3061HV0LV0 (human constant regions from the anti-CD10 chimeric antibody expression vector)
B3: MS705/HV2LV9 antibody (anti-CD10 CDR-grafted antibody obtained from the HV2LV9MS705 strain) (antibody, V domains shown)
VH: B1 VH with G42E, R98S
VL: B1 VL
notes: Whole antibody expressed from pKANTEX3061HV2LV9 (human constant regions)

Target: T1, CD10 (membrane fraction of the CD10-high-expressing human small cell lung cancer cell line SBC-3) (human, UniProt P08473 2-750)
T1 construct: whole, on cells; The antigen was a crude cell membrane fraction, not purified CD10 and not intact cells; also called CALLA; neutral endopeptidase
Assay: ELISA; plate coated with membrane fraction of CD10-high SBC-3 cells; peroxidase-labelled anti-human IgG(H&L); OD415

T1 sequence (P08473 2-750): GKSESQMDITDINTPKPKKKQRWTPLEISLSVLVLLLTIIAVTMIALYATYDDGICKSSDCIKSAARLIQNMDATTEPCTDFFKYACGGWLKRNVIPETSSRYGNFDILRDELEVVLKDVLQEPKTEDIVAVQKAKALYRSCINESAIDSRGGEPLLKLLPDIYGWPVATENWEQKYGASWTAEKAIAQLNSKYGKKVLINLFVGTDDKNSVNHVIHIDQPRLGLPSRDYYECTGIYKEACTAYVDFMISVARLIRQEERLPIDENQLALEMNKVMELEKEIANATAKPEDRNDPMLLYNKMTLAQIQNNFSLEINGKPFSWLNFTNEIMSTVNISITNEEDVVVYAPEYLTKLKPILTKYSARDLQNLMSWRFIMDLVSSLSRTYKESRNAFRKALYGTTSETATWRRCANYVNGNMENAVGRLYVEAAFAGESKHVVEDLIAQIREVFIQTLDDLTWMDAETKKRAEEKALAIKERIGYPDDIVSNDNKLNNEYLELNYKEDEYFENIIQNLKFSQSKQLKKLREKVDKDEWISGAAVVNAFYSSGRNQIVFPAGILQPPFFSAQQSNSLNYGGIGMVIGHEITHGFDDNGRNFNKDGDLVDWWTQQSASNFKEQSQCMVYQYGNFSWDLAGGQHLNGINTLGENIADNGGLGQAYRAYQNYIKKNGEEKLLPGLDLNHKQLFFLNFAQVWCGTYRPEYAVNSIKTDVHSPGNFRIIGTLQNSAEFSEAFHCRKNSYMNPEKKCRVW

| Binder | binding result |
| --- | --- |
| B1 | binds |
| B2 | binds |
| B3 | binds |

Reference: patent publication WO2006121159A1 (dated 2006)
